The results in this text go back to patent EP4660205A1 (Beijing Wisdomab Biotechnology Co., Ltd, dated 2025).

For experiment [1], the target named is T1, hIL-1R3-His (extracellular domain of human IL-1R3 with C-terminal His tag) (human (homo sapiens), UniProt Q9NPH3 21-359).
T1 sequence: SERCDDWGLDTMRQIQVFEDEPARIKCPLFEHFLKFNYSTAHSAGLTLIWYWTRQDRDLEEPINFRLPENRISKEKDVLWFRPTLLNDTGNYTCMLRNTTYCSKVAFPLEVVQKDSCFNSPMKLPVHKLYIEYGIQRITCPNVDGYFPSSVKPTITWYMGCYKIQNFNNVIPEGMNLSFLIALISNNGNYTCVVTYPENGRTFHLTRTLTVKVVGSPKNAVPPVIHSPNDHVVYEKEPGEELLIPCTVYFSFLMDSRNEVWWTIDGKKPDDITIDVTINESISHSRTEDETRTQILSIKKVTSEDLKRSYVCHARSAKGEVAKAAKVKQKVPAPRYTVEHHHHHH
In words: SPR (Biacore T200), antibody captured by anti-human Fc, hIL-1R3-His as analyte, 1:1 model. On the technique in general: SPR reads the build-up and loss of mass on a sensor chip optically.

The target in experiment [2] is T1, hIL-1R3-His (extracellular domain of …). The experiment is described as above. This is another data set of the same source.
The target of experiment [3] is T2, human IL-36R on the cell surface (HEK-Blue IL-36 cells, HaCAT cells, human CD14+ monocytes) (human, UniProt Q9HB29 20-575).
T2 sequence (looked up): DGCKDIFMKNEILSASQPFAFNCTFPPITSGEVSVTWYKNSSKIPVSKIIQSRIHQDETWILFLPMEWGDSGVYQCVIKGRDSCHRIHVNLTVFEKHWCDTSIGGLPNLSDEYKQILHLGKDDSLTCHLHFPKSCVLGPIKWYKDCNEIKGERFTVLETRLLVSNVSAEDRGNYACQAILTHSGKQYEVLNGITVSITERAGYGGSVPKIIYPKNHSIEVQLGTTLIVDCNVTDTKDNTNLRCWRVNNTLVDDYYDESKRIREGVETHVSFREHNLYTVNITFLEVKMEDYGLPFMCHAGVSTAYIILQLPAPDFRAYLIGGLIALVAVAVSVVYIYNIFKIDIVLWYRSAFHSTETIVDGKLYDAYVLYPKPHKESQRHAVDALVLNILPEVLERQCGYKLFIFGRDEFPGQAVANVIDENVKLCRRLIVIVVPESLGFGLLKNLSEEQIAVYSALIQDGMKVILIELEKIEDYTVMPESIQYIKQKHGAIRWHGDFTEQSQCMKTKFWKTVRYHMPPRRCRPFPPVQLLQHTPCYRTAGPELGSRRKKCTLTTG
Briefly: cell-based or functional assay.

In experiment [4] the target is T2, human IL-36R on the cell surface …. Briefly: cell-based or functional assay. The source holds these as a separate data set.
In experiment [5] the target is T3, hIL-36R-His (extracellular domain of human IL-36R with C-terminal His tag) (human (homo sapiens), UniProt Q9HB29 20-335).
T3 construct: also called human hIL-36R-His
T3 sequence: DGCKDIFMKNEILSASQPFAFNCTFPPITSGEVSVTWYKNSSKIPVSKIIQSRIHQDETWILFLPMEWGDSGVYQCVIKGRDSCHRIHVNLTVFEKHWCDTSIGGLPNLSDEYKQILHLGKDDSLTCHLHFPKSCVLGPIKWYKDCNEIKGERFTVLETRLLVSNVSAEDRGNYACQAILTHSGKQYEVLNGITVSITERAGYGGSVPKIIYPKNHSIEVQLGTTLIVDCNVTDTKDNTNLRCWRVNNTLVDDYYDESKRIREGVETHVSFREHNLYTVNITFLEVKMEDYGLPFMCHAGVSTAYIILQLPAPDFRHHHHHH
In words: SPR (Biacore T200), antibody captured by anti-human Fc, hIL-36R-His as analyte, 1:1 model.

Experiment [6] concerns the target T2, human IL-36R on the cell surface …. Briefly: cell-based or functional assay. This is another data set of the same source.
Experiment [7] deals with T1, hIL-1R3-His (extracellular domain of …). In words: SPR (Biacore T200), antibody captured by anti-human Fc, hIL-1R3-His as analyte, 1:1 model. This is another data set of the same source.
Experiment [8] concerns the target T3, hIL-36R-His (extracellular domain of …). Briefly: SPR (Biacore T200), antibody captured by anti-human Fc, hIL-36R-His as analyte, 1:1 model. The source holds these as a separate data set.
Experiment [9] shares this target. The description is as above. This is another data set of the same source.
Experiment [10] concerns the target T2, human IL-36R on the cell surface …. Briefly: cell-based or functional assay. The source holds these as a separate data set.

Changes are numbered by the printed parent chain. Read-outs that look alike come from different tables or passages of the source.

B1: R1B9 (mouse anti-human IL-1R3 monoclonal antibody) (antibody, V domains shown)
VH: EVKLVESGGGLVKPGGSLKLSCAASGFTFSSYAMSWVRQSPEKRLEWVAEISRGGSHTYYPDTVTGRFTISRDNAKNTLYLEMTSLRSEDTALYYCARSYGNYPFDYWGQGTTLTVSS
VL: DIVMTQSPAIMSASPGEKVTMTCSASSSVSYMYWYQQKPGSSPRLLIYDTSNLASGVPVRFSGSGSGTSYSLTISRMEAEDAATYYCQQWSSYPLTFGAGTKLEIK
notes: Found as a mouse scFv on phage; it was captured by anti-human IgG (Fc) in SPR and detected with anti-human IgG-FITC, which points to a human Fc; also called mouse IL-1R3 monoclonal antibody R1B9; parent R1B9
With B1, in experiment [1], the Kd (in general, a measure of binding affinity in units of concentration) came to 1070 pM; the koff (commonly the first-order rate constant of dissociation) was determined as 0.00011 s⁻¹; the kon – broadly, the second-order rate constant of association – is 103000 M⁻¹ s⁻¹. In [2], this molecule yielded a Kd of 1240 pM, a koff of 9.32e-05 s⁻¹ and a kon of 75000 M⁻¹ s⁻¹.

B2: Common light chain bispecific antibody (R72B7VH/R1B9VH-h1+L36E9VK) (bispecific antibody, human IgG1, kappa)
heavy 1: QVQLVQSGAEVKKPGASVKVSCKASGYSFTSSWIHWVKQAPGQGLEWMGEINPGNVRSNYNENFRNKVTMTVDTSISTAYMELSRLRSDDTAVYYCTVINYGEPYFASWGQGTLVTVSSASTKGPSVFPLAPSSKSTSEGTAALGCLVKDYFPEPVTVSWNSGALTSGVHTFPAVLQSSGLYSLSSVVTVPSSSLGTQTYICNVDHKPSNTKVDKTVEPKSCDKTHTCPPCPAPEFEGGPSVFLFPPKPKDTLMISRTPEVTCVVVDVSQEDPEVQFNWYVDGVEVHNAKTKPREEQYNSTYRVVSVLTVLHQDWLNGKEYKCKVSNKALPASIEKTISKAKGQPREPQVCTLPPSQEEMTKNQVSLSCAVKGFYPSDIAVEWESNGQPENNYKTTPPVLDSDGSFFLVSKLTVDKSRWQEGNVFSCSVMHEALHNHYTQKSLSLSPGK
heavy 2: EVQLVESGGGLVQPGGSLRLSCAASGFTFSSYAMSWVRQAPGKGLVWVAEISRGGSHTYYPDTVTGRFTISRDNAKNTLYLQMNSLRAEDTAVYYCARSYGNYPFDYWGQGTTVTVSSASTKGPSVFPLAPSSKSTSGGTAALGCLVKDYFPEPVTVSWNSGALTSGVHTFPAVLQSSGLYSLSSVVTVPSSSLGTQTYICNVNHKPSNTKVDKRVEPKSCDKTHTCPPCPAPEFEGGPSVFLFPPKPKDTLMISRTPEVTCVVVDVSHEDPEVKFNWYVDGVEVHNAKTKPREEQYNSTYRVVSVLTVLHQDWLNGKEYKCKVSNKALPASIEKTISKAKGQPREPQVYTLPPCREEMTKNQVSLWCLVKGFYPSDIAVEWESNGQPENNYKTTPPVLDSDGSFFLYSKLTVDKSRWQQGNVFSCSVMHEALHNHYTQKSLSLSPGK
light: EIVLTQSPGTLSLSPGERATLSCRASQSVIGSYLAWYQQKPGQAPRLLIYSASKLASGIPDRFSGSGSGTDFTLTISRLEPEDFAVYYCQQDTRYPITFGQGTKVEIKRTVAAPSVFIFPPSDEQLKSGTASVVCLLNNFYPREAKVQWKVDNALQSGNSQESVTEQDSKDSTYSLSSTLTLSKADYEKHKVYACEVTHQGLSSPVTKSFNRGEC
notes: also called IL-36R×IL-1R3 common light chain bispecific antibody; R72B7/R1B9VH-h1+L36E9VK
B2: in [3], the “fold increase of activity by IC50 against Spesolimab, IL-36α, HaCAT hIL-8 secretion” value is approximately 12 fold; the “fold increase of activity by IC50 against Spesolimab, IL-36β, HaCAT hIL-8 secretion” value was approximately 4 fold; the “fold increase of activity by IC50 against Spesolimab, IL-36γ, HaCAT hIL-8 secretion” value is approximately 15 fold; the “fold increase of activity by IC50 against Spesolimab, IL-36γ, hIL-8 secretion by human monocytes” value is approximately 17 fold. Besides, in experiment [4], the “IC50 for inhibiting IL-36α from inducing hIL-8 secretion by HaCAT cells” value (“IC50 for inhibiting IL-36α” below) turned out to be 7.97 pM, the “IC50 for inhibiting IL-36β from inducing hIL-8 secretion by HaCAT cells” value (“IC50 for inhibiting IL-36β” below) turned out to be 27 pM and the “IC50 for inhibiting IL-36γ from inducing hIL-8 secretion by HaCAT cells” value (“IC50 for inhibiting IL-36γ … by HaCAT cells” below) came to 45.3 pM. Besides, in experiment [5], the Kd is 1300 pM, the koff was 3.98e-05 s⁻¹ and the kon came out at 30700 M⁻¹ s⁻¹. Further, in experiment [6], the “IC50 for inhibiting IL-36γ-induced hIL-8 secretion by human monocytes” value amounted to 1.71 pM. In experiment [7], the Kd was determined as 1440 pM, the koff was 5.53e-05 s⁻¹ and the kon turned out to be 38400 M⁻¹ s⁻¹.

B3: R49E11VH-h3+L26B11VK (antibody, V domains shown)
VH: QVQLVQSGAEVKKPGASVKVSCKASGYSFTSSWIHWVRQAPGQGLEWMGEINPGSGRSNYNENFQGRVTMTVDTSISTAYMELSRLRSDDTAVYYCTVVFYGEPYFPFWGQGTLVTVSS
VL: EIVLTQSPGTLSLSPGERATLSCRASQSVIYSYLAWYQQKPGQAPRLLIYSASKRASGIPDRFSGSGSGTDFTLTISRLEPEDFAVYYCQQHAGIPVTFGQGTKVEIK
notes: Found as a Fab on phage; also called anti-human IL-36R monoclonal antibody; IL-36R monoclonal antibody
For the molecule B3, in [4], the “IC50 for inhibiting IL-36α” value is 55.9 pM, the “IC50 for inhibiting IL-36β” value came to 280 pM and the “IC50 for inhibiting IL-36γ … by HaCAT cells” value amounted to 1580 pM. For the same molecule, in [8], binding was characterised by a dissociation constant (Kd) of 1760 pM, the koff was found to be 6.83e-05 s⁻¹ and the kon is 38900 M⁻¹ s⁻¹. Besides, in [9], the Kd was 2900 pM, the koff came out at 6.63e-05 s⁻¹ and the kon worked out at 22800 M⁻¹ s⁻¹. In experiment [10], the “IC50 for inhibiting IL-36α” value was 53.3 pM, the “IC50 for inhibiting IL-36β” value was 276 pM and the “IC50 for inhibiting IL-36γ … by HaCAT cells” value was determined as 1900 pM. Moreover, in experiment [6], the “IC50 for inhibiting IL-36γ-induced hIL-8 secretion by human monocytes” value worked out at 67.7 pM.

B4: Spesolimab (antibody, V domains shown)
VH: B3 VH with R38K, S55N, G56V, S58T, Q65R, G66N, R67K, F108Y
VL: QIVLTQSPGTLSLSPGERATMTCTASSSVSSSYFHWYQQKPGQAPRLWIYRTSRLASGVPDRFSGSGSGTDFTLTISRLEPEDAATYYCHQFHRSPLTFGAGTKLEIK
notes: Made in house from the variable regions of US9023995B2 as a whole IgG1m3 subtype antibody (control)
As to B4, in experiment [4], the “IC50 for inhibiting IL-36α” value was 93.9 pM, the “IC50 for inhibiting IL-36β” value came out at 114 pM and the “IC50 for inhibiting IL-36γ … by HaCAT cells” value came to 682 pM. Moreover, in experiment [9], the Kd was 2560 pM, the koff was found to be 7.39e-05 s⁻¹ and the kon came out at 28800 M⁻¹ s⁻¹. Further, in experiment [10], the “IC50 for inhibiting IL-36α” value is 43.3 pM, the “IC50 for inhibiting IL-36β” value was 172 pM and the “IC50 for inhibiting IL-36γ … by HaCAT cells” value stood at 642 pM. For the same molecule, the “IC50 for inhibiting IL-36γ-induced hIL-8 secretion by human monocytes” value in experiment [6] was 28.8 pM.
